Reference: patent publication US20220409550A1 (KOREA INSTITUTE OF SCIENCE AND TECHNOLOGY, published 2022)

Target: murine PD-L1 on CHO-K1 cells (murine, UniProt Q9EP73 19-290)
Experiment: cell-based or functional assay

Chain of murine PD-L1 on CHO-K1 cells (Q9EP73 19-290): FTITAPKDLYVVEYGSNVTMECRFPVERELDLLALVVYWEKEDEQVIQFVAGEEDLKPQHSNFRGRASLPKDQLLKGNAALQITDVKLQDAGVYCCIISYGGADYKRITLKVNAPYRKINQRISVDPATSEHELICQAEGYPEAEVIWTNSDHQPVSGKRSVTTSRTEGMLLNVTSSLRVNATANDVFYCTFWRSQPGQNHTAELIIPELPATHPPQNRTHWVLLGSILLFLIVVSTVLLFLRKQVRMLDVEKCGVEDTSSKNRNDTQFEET

- half maximal effective concentration (EC50), NFAT-mediated luciferase expression, bioluminescent PD-1/PD-L1 blockade bioassay: 457 nM
B1: monomeric form of soluble PD-1 (sPD-1) of the ecto-domain of murine PD-1 (receptor)
chain: MHHHHHHLEVPNGPWRSLTFYPAWLTVSEGANATFTCSLSNWSEDLMLNWNRLSPSNQTEKQAAFCNGLSQPVQDARFQIIQLPNRHDFHMNILDTRRNDSGIYLCGAISLHPKAKIEESPGAELVVT
